According to paper PMC4323944 (Journal of molecular biology, 2014):
Residue numbers refer to the chain shown, from its start. Names and notes keep the numbering of the source.

T1: T. maritima FliM middle domain (FliMM, residues 46-242) (Thermotoga maritima, UniProt Q9WZE6 46-242)
T1 sequence (looked up): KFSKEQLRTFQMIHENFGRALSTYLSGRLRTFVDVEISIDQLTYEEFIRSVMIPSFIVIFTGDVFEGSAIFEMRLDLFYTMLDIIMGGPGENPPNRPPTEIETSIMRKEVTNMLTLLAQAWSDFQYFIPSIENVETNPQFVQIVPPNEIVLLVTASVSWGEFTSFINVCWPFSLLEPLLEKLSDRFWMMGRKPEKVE

B1: T. maritima FliG middle domain (FliGM, residues 117-195) (domain or fragment, Thermotoga maritima, UniProt Q9WY63 117-195, looked up)
chain: VQLVNFLQSEHPQTIAVVLSYLDPPVAAQILGALPEELQTEVLKRIALLERTSPEVVKEIERNLEKKISGFVSRTFSKV
B2: FliG Q129W 160-R1 (FliGMC Q129W K160C, MTSSL spin-labeled) (domain or fragment, Thermotoga maritima, UniProt Q9WY63 116-335, looked up)
chain: PVQLVNFLQSEHPWTIAVVLSYLDPPVAAQILGALPEELQTEVLCRIALLERTSPEVVKEIERNLEKKISGFVSRTFSKVGGIDTAAEIMNNLDRTTEKKIMDKLVQENPELADEIRRRMFVFEDILKLDDRSIQLVLREVDTRDLALALKGASDELKEKIFKNMSKRAAALLKDELEYMGPVRLKDVEEAQQKIINIIRRLEEAGEIVIARGGGEELIM
modifications: nitroxide side chain R1 (MTSSL on Cys 160)
B3: FliG 160-R1 (FliGMC K160C, MTSSL spin-labeled) (domain or fragment, Thermotoga maritima, UniProt Q9WY63 116-335, looked up)
chain: B2 chain with W14Q
modifications: nitroxide side chain R1 (MTSSL on Cys 160)
B4: FliG 174-R1 (FliGMC K174C, MTSSL spin-labeled) (domain or fragment, Thermotoga maritima, UniProt Q9WY63 116-335, looked up)
chain: B2 chain with W14Q, C45K, K59C
modifications: nitroxide side chain R1 (MTSSL on Cys 174)

Columns and labels:
[1] = target: T1, T. maritima FliM middle domain (FliMM, …); test: crystal structure
[2] = target: the molecule itself; test: pulsed dipolar ESR spectroscopy
[3] = target: the molecule itself; test: SEC-MALS

Row | Binder | binding result [2] | other results
1 | B1 | – | binding result [1]: binds
2 | B2 | binds | –
3 | B3 | – | stoichiometry N [3]: 2
4 | B4 | binds | –
